Publication PMC4503318 (Chemistry & biology, 2015)
Where two headings read alike, the source gives them in different places.

B1: Pf-like human LysRS (human LysRS 70-584 with P300T, Q321V, T337S) (enzyme)
chain: not shown
B2: Plasmodium falciparum lysyl-tRNA synthetase (PfLysRS), residues 77-583 (enzyme)
chain: not shown

Key:
crystal structure [1] = molecular target: the molecule itself; assay: crystal structure
crystal structure [2] = molecular target: the molecule itself; assay: crystal structure; remark: listed apart in the source

Protein | binding result (crystal structure [1]) | binding result (crystal structure [2])
B1 | binds | –
B2 | – | binds
